Where a chain is given by its changes, count along the chain named. Each block holds one binder with its values, some of them ahead of it.
Key:
[1] = target: T1, soluble EGFR (sEGFR), amino acids 1-619 of mature human EGFR with (Gly)4Ser linker and (His)6 tag (human, UniProt P00533 25-643, biotinylated with Sulfo-NHS-LC-Biotin in the filter lift and the capture ELISA); test: capture filter lift and capture ELISA, biotinylated sEGFR
T1 construct: range 1-619; Expressed in CHO-K1 cells; also called biotinylated sEGFR; B-sEGFR
Method: Briefly, a filter is coated with a capture reagent (goat anti-human kappa chain antibody), then the coated filter is placed on a plate with phage plaques, from phage which are expressing Fabs. The filter is incubated with the plaques, then the filter is incubated with biotinylated sEGFR, and bound biotinylated sEGFR is detected by binding of Neutravidin-AP and incubation with the detectable alkaline phosphatase substrate.
The filter is submerged for 15 min. The filter is washed three times in PBS. The filter is blocked in 1% BSA in PBS for 1 hour. The filter is washed three times in PBS. The filter is air dried for 10 min. The filter is carefully laid onto phage plate and incubated overnight at 22° C. The filter is carefully lifted off and washed briefly in PBS. The filter is incubated with Biotinylated antigen at 1/1000 dilution into 3% dry milk, PBS, 0.05% Tween 20 for 1 hour at room temperature. The filter is vacuum washed with PBS, 0.05% Tween 20 three times. The filter is incubated with Neutravidin-AP 1/1000 in PBS, 0.05% Tween 20 for 30 min. at room temperature. The filter is vacuum washed with PBS, 0.05% Tween 20 three times. The filter is developed in 10 mls AP substrate (Nitro-blue tetrazolium, 5-Bromo-4-chloro-indolyl phosphate, Pierce, Rockford, Ill.). Plaques are selected based on blue color intensity.
Capture ELISA is used as an assay to detect Fabs which bind sEGFR as follows. […] The wells are washed 3 times with PBS-Tween 20 (0.05%). the wells are blocked with 50 μL/well 1% BSA in PBS-Tween for 1 hour at RT. The wells are washed 3 times with PBS-Tween. […] The plate is incubated at RT for 2 hours. The plate is wash 3 times with PBS-Tween. 50 μL/well biotinylated-sEGFR diluted 1/1000 in PBS-Tween are added and the plate is incubated at RT for 1 hour. The plate is washed 3 times with PBS-Tween.

[2] = target: T1, soluble EGFR (sEGFR), amino acids 1-619 …; test: KinExA, calculated as Kd x kon
Method: (§1) Binding affinity measurements for full-length monoclonal antibodies of the invention are determined using a Sapidyne KINEXA assay. NHS-activated fast-flow sepharose beads (GE Healthcare) are pre-coated with antigen (50 μg anti-EGFR antibody per ml of beads) and blocked with 10 mg/ml BSA in 1 M Tris-HCl, pH 8.0. […] To determine the free antibody present at equilibrium, each sample is passed through the sEGFR-coated beads. The amount of bead-bound antibody is then quantified by passing a solution of fluorescent (Cy5) labeled goat anti-human Fc antibody (Jackson Immuno Research) diluted 1:4000 in running buffer over the beads. The measured fluorescence signal is proportional to the concentration of free antibody at equilibrium. Each concentration of sEGFR is measured in duplicate. The equilibrium dissociation constant (KD) is obtained from non-linear regression of the competition curves using a multiple-curve, one-site homogeneous binding model (KINEXA software).
(§2) The association rate constant (kₒₙ) for sEGFR binding is also determined using a Sapidyne KINEXA assay. Two pM antibody is mixed with 20 pM sEGFR using the same conditions as described above. At various times, samples are probed for free antibody using the conditions described above for equilibrium binding, and then the resulting time dependence is fit using the KINEXA software to determine the association rate (kₒₙ). The dissociation rate constant (koff) is calculated using the expression koff=Kd×kₒₙ.

[3] = target: T1, soluble EGFR (sEGFR), amino acids 1-619 …; test: KinExA, full-length antibody with sEGFR in solution
Method: as §1, §2

[4] = target: T1, soluble EGFR (sEGFR), amino acids 1-619 …; test: KinExA, equilibrium, full-length antibody with sEGFR in solution
Method: as §1

[5] = target: T1, soluble EGFR (sEGFR), amino acids 1-619 …; test: capture ELISA: binder captured on goat anti-human kappa at varied concentration, biotinylated sEGFR (1/1000) detected with Neutravidin-AP, OD405
Method: Capture ELISA is used as an assay to detect Fabs which bind sEGFR as follows. […] The wells are washed 3 times with PBS-Tween 20 (0.05%). the wells are blocked with 50 μL/well 1% BSA in PBS-Tween for 1 hour at RT. The wells are washed 3 times with PBS-Tween. […] The plate is incubated at RT for 2 hours. The plate is wash 3 times with PBS-Tween. 50 μL/well biotinylated-sEGFR diluted 1/1000 in PBS-Tween are added and the plate is incubated at RT for 1 hour. The plate is washed 3 times with PBS-Tween. 50 μL/well Neutravidin-Alkaline Phosphatase (Neutravidin-AP; Pierce, Rockford, Ill.) diluted 1/1000 in PBS-Tween are added and incubated for 30 min. at RT. The plate is washed 3 times with PBS-Tween. 150 μL/well pNPP substrate (Sigma) is added and incubated at 37° C. until color develops.

B2: Fab 2.38 (Fab, V domains shown)
VH: QVTLKESGPVLVKPTETLTLTCTVSGFSLSNWGVHWIRQPPGKALEWLAVIWSGGNTDYNTPFDSRLTISKDTSKSQVVLTMTNMDPVDTATYYCARALDYYDYDFAYWGQGTMVTVSS
VL: EIVLTQSPDFQSVTPKEKVTITCRASYSIGTNIHWYQQKPDQSPKLLIKYASESISGVPSRFSGSGSGTDFTLTINSLEAEDAATYYCQQNNEWPTSFGGGTKVEIK
notes: Fab
binding result [1]: binds

B3: full-length monoclonal antibody VH2.69 (antibody, V domains shown)
VH: B2 VH with G33D, D64A, D105N
VL: B2 VL with E93N
notes: Full-length antibody with human Fc
koff [2]: 6.51e-06 s⁻¹ | kon [3]: 9.64e+06 M⁻¹ s⁻¹ | Kd [4]: 0.68 pM

B8: full-length monoclonal antibody VH4.21 (antibody, V domains shown)
VH: QVQLQESGPGLVKPSETLSLTCTVSGFSLTNWDVHWIRQPPGKGLEWIGVIWSGGNTDYNTPFTSRVTISVDTSKNQFSLKLSSVTAADTAVYYCARALDYYDYDFAYWGQGTMVTVSS
VL: B2 VL with E93D
notes: as for B3
koff [2]: 2.02e-06 s⁻¹ | kon [3]: 1.07e+07 M⁻¹ s⁻¹ | Kd [4]: 0.188 pM

Further lines, results first:

binding result [1]: binds
B1: Fab 4.14 (Fab, V domains shown)
VH: B8 VH with V50N, F106Y
VL: B2 VL with E93D, S97T
notes: Fab

koff [2]: 1.75e-07 s⁻¹ | kon [3]: 1.46e+07 M⁻¹ s⁻¹ | Kd [4]: 0.012 pM
B4: full-length monoclonal antibody VH4.15 (antibody, V domains shown)
VH: B8 VH with W32Y, D33G, V50N, F106Y
VL: B2 VL
notes: as for B3

EC50 (read off the curve) [5]: ~0.02 µg/mL
B5: Fab 4.21 (Fab, V domains shown)
VH: B8 VH
VL: B2 VL with E93D
notes: Fab

binding result [1]: binds
B6: Fab 2.II.3 (Fab, V domains shown)
VH: B2 VH with G33D, D64T
VL: B2 VL with E93D, S97T
notes: Fab; also called 2.11.3

Kd [4]: 0.215 pM
B7: full-length monoclonal antibody VH2.87 (antibody, V domains shown)
VH: B2 VH with G33D, N56A, D64N, D105N
VL: B2 VL with E93N, S97T
notes: as for B3

From patent US20080274114A1 (APPLIED MOLECULAR EVOLUTION, published 2008)
